These results are taken from patent US20110172126A1, “LIBRARIES OF PEPTIDE CONJUGATES AND METHODS FOR MAKING THEM” (XENOME LTD, priority 2008, published 2011).

*1 amine or outer side, *2 acyl side, *3 side chain or, on linkers, in order; H or OH if unused. Bridges are numbered along the chain shown (N, C = ends). Where no end group is shown, it is not given here. [ ]: non-standard residue; d: D form. The star is where a group is joined. 12302 = turn inducer derived from (2S,4R)-Fmoc-4-amino-1-BOC-pyrrolidine-2-carboxylic acid, O=C([C@@H]1C[C@@H](N[*:1])CN1[*:3])[*:2]; Isovaleryl = CC(C)CC(=O)*

Common to all, as to format: binding
Test [1] deals with T1, human norepinephrine transporter (hNET) (Homo sapiens, UniProt P23975).
T1 construct: purchased Perkin Elmer Life Sciences RBHNETM400UA
The note with it: single concentration 10 μM, 3H-nisoxetine displacement.
Procedure: The ability of compounds to act as inhibitors of the human norepinephrine transporter (hNET) was measured by competitive inhibition of ^3H-nisoxetine from membrane expressing hNET.
Total assay volume 150 μL (50 μL peptide conjugate, 50 μL tritiated compound and 50 μL membrane) with each data point performed in triplicate. Assay buffer used was TrisHCl (50 mM, pH 7.4), NaCl (120 mM) and KCl (5 mM). Peptide conjugates were initially screened at a single concentration of 10 μM. […] After the addition of the membrane the assay was incubated for 1 h at RT after which the reaction was filtered onto GF filtermats B (Perkin Elmer cat #1450-521) pretreated with 0.6% PEI using a Tomtec cell harvester and washed 3 times using wash buffer (20 mM HEPES pH 7.4, 125 mM NaCl @ 4° C.). Filtermats were then dried, placed in a filter bag, 9 mL betaplate scintillant (Perkin Elmer cat #1205-440) added and filtermats counted on a Wallac Microbeta instrument.

In test [2] the target is T2, rat sodium channel 1.2 (rNav1.2) (Rattus norvegicus, UniProt P04775).
T2 construct: from tissue; host or cells: rat brain homogenate / rat brain membrane
Nature of the test: rat Nav1.2 channel assay: competitive inhibition of 125H-TIIIA from rat brain homogenate. The note with it: single concentration 10 μM. The procedure:
A homogeneous assay was used to determine the ability of compounds to act as inhibitors of the rat sodium channel 1.2 (rNav1.2) as measured by competitive inhibition of ^125H-TIIIA from rat brain homogenate.
Total assay volume was 80 μL (20 μL competing ligand, 20 μL, SPA beads, 20 μL rat brain homogenate and 20 μL iodinated ligand). Assay buffer used was HEPES (20 mM pH7.2), MgCl2 (75 mM), EDTA (0.2 mM), EGTA (0.2 mM), BSA (0.1%) and 2% diluted protease inhibitors (Roche cat #1826145). Peptides were initially screened at a single concentration of 10 μM. […] The competing ligands were added to the assay plate followed by Flashblue GPCR scintillating beads at a concentration of 100 μg/well (Perkin Elmer cat #FBB001), rat brain membrane and 30 pM ^125H-TIIIA. After the addition of all reagents the plate was sealed and incubated at RT for 1 h with shaking. The plate was then counted on a Wallac Microbeta instrument.

The target of test [3] is T3, human delta2 Opioid Receptor (hδ2OR) (Homo sapiens, UniProt P41143).
T3 construct: purchased Perkin Elmer Life Sciences RPNQ001
The experiment in a line: hδ2OR assay: competitive inhibition of 3H-Naltrindole from membrane expressing hδ2OR. The note with it: single concentration 10 μM. The procedure: A homogeneous assay was used to determine the ability of compounds to act as inhibitors of the hδ2OR as measured by competitive inhibition of ^3H-Naltrindole from membrane expressing hδ2OR.
Total assay volume was 80 μL (20 μL competing ligand, 20 μL SPA beads, 20 μL, membrane and 20 μL tritiated ligand). Assay buffer used was Tris HCl (50 mM, pH 7.4), MgCl2 (5 mM) and BSA (0.1%). Peptides were initially screened at a single concentration of 10 μM. Confirmation of any hits was performed using full dose response of the peptide using various concentrations (10^−4 to 10^−11M) or control ligand (Naltriben). The competing ligands were added to the assay plate followed by SPA beads at a concentration of 100 μg/well (GE Healthcare, Amersham Cat. #FBB001) and […] (Perkin Elmer Life Sciences Cat #RPNQ001). This was followed by 1.6 nM […] [for a final concentration 0.4 nM] (Perkin Elmer Cat #NET1065), after which the plate was sealed and incubated at RT for 1 hr with shaking. The plate was then counted on a Wallac Microbeta instrument.

T3 sequence (P41143 whole entry): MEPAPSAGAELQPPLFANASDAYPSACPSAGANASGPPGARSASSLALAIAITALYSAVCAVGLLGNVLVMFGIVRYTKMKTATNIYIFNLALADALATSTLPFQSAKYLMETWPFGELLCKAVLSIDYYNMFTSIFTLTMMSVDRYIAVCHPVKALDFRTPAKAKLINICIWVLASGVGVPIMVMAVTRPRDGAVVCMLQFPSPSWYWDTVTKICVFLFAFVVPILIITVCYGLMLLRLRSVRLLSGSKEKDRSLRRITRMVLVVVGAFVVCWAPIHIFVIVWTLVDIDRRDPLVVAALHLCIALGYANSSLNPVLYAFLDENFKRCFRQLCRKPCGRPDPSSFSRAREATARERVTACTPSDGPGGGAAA
T1 sequence (P23975 whole entry): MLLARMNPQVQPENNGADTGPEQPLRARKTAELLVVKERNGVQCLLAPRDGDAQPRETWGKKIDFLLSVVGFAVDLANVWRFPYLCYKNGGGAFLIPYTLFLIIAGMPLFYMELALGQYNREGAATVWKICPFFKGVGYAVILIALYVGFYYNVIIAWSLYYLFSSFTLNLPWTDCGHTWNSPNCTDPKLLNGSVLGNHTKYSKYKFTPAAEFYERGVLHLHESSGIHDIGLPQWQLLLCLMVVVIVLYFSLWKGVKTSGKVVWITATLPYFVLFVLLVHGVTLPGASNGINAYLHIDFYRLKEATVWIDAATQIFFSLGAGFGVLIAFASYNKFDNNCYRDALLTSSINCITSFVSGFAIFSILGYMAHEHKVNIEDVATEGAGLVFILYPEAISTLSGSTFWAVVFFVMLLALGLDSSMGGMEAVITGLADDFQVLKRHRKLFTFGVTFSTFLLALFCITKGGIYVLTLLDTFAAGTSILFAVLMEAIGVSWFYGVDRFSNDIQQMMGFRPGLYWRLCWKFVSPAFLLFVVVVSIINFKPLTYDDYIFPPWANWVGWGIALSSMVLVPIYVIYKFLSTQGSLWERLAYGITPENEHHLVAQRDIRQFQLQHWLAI
T2 sequence (P04775 whole entry): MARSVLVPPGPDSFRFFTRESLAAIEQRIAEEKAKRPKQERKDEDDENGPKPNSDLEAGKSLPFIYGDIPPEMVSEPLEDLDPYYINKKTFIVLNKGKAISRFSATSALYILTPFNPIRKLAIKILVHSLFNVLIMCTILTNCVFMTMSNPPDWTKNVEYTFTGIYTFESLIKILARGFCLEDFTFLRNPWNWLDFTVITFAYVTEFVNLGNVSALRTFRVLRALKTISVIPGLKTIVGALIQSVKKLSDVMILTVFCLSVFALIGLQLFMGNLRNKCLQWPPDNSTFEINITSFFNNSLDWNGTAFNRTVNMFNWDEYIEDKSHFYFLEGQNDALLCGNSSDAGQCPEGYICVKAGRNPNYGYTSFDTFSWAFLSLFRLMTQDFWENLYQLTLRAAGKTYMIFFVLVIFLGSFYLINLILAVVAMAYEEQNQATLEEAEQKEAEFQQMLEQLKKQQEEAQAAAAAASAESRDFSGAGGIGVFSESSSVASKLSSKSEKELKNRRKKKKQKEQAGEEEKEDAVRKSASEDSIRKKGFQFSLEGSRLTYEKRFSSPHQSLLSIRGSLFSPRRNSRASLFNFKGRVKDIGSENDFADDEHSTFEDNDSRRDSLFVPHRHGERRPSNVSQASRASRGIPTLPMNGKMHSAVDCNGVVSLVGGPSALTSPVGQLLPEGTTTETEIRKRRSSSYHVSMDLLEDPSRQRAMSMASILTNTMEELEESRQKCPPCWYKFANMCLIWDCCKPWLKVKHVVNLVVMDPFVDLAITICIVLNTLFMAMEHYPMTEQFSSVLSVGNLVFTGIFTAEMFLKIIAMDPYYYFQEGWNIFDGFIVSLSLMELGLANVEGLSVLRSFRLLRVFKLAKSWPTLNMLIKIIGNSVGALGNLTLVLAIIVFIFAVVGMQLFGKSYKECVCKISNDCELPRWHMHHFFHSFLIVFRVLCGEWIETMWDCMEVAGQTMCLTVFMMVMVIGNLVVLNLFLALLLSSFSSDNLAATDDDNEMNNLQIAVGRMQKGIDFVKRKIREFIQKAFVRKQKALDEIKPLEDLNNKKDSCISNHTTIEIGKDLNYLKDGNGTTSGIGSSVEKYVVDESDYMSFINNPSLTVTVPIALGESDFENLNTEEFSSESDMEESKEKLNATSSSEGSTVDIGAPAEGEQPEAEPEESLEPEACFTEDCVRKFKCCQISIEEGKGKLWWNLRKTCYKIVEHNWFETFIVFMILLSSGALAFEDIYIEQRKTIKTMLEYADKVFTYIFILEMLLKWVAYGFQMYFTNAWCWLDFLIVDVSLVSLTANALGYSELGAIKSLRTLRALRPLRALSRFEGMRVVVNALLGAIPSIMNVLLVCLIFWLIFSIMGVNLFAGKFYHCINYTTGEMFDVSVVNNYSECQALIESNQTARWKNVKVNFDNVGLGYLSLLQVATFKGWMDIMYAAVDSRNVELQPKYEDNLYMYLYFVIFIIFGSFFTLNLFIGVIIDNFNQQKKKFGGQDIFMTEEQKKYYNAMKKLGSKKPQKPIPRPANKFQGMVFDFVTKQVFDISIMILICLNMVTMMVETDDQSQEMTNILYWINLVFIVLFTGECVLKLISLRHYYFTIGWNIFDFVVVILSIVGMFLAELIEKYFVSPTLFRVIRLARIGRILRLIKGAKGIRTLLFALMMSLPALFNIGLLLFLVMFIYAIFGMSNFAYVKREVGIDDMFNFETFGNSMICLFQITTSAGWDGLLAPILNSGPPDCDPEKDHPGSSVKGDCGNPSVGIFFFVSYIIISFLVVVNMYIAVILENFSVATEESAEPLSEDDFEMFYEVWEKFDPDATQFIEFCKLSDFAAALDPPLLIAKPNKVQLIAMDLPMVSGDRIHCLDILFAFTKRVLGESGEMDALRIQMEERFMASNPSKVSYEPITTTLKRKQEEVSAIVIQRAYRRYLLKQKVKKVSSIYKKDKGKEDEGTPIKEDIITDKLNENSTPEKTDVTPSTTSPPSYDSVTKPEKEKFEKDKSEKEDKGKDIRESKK

On to “6 (CV[H2NNH:CHNH(CH2)3CO]KC; disulfide 1-5 (inferred); not fully specified) [compound 6]”, for which the entries for the “% inhib @ 10 μM” value in test [1] and in test [2] were 94% and above 70%, respectively.
As to “46 (CF[12302](cyclohex‑CH2—CO)YC; disulfide 1-5 (inferred)) [compound 46]”, the “% inh @ 10 μM” value in test [3] was above 80%.
“47 (CF[12302](Isovaleryl)YC; disulfide 1-5 (inferred)) [compound 47]”: in test [3], the “% inh @ 10 μM” value is above 80%.
